Measured values reported in US20250295734A1, “ANTICOAGULANT PROTEINS AND THEIR USE FOR TREATING DISEASES ASSOCIATED WITH THE ACTIVATION OF NEUTROPHILS” (BIOXODES, priority 2018, published 2025).

How the values were obtained:
[1] = tested on: platelet accumulation and fibrin generation in Panc02 tumor-bearing mice; experiment: Laser injury in pancreatic cancer-bearing mice (cancer-associated thrombosis model); assay type: in vivo, mice (C57BL/6JRj); conditions: for fibrin generation compared to NaCl cancer mice / platelet accumulation compared to NaCl cancer mice: tumor-bearing mice
Method: Murine Panc02 cells (mouse pancreatic ductal adenocarcinoma cell line) were cultured to a 80% confluence in RPMI-1640 medium (Life Technologies) supplemented with 10% FCS (PAA), 1000 U/mL penicillin (Life Technologies), 100 μg/mL streptomycin (Life Technologies) and 0.1% fungizone (Life Technologies) at 37° C. in a humidified atmosphere with 5% CO2. Once in the exponential growth phase, cells were washed three times with PBS and briefly exposed to non-enzymatic cell dissociation buffer (Life
Technologies) to dislodge the cells. The cells were carefully washed three times, resuspended in PBS, and diluted to the desired concentration.
Five-week-old C57BL/6 mice were injected subcutaneously in the right flank with a tumor cell suspension (10^6 cells in 100 μL of PBS). When the tumor became palpable (0.2 cm), measurements in two dimensions were performed with a caliper, and the volume of each tumor was calculated according to the formula for the volume of an ellipsoid: π/6×a(b)^2, where a is the largest diameter and b the smallest diameter of the tumor.
Intravital video-microscopy of the cremaster muscle microcirculation was done as previously described (Falati et al., 2002) and as described hereinabove (see Example 1).
Vessel wall injury was induced with a Micropoint Laser System (Photonics Instruments) as described hereinabove (see Example 1).
Platelet and fibrin accumulation after injury were monitored and detected as indicated hereinabove (see Example 1).
Tumor-bearing mice were attributed to the Ir-CPI-treated group (Ir-CPI cancer) or to the control group (NaCl cancer). Moreover, cancer-free mice treated with NaCl (NaCl cancer-free) were also used as negative control. All mice were submitted to laser injuries in arterioles of the cremaster muscle to trigger thrombosis. Ir-CPI treated mice received either a low or a high dose of the investigative product.
Platelet accumulation and fibrin generation on the injured vessel walls were monitored using the following fluorescently labeled antibodies: DyLight649-labeled anti-GPIb antibody and Alexa Fluor 488-conjugated anti-fibrin antibody, respectively.

prekallikrein (PK) = prekallikrein (PK) (Homo sapiens, UniProt P03952); conditions: cited from earlier work
Chain of prekallikrein (PK) (P03952 20-638): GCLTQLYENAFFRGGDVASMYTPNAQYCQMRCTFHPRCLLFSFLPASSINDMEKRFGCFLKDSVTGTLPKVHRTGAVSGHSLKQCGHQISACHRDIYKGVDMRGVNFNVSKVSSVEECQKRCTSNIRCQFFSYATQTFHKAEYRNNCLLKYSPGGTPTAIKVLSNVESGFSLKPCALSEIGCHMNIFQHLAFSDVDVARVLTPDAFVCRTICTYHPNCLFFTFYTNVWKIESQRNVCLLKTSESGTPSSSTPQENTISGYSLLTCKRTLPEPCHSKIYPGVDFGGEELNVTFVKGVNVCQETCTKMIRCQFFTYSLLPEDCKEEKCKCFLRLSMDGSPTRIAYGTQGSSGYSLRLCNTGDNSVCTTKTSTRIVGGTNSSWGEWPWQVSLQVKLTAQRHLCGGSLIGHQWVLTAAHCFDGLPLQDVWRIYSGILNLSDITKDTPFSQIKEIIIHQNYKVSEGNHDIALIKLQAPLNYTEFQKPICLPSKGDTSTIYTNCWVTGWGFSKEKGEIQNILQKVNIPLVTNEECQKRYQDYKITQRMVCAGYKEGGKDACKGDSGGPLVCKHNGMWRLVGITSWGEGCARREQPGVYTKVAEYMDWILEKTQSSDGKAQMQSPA

[2] = rodents; pharmacological therapeutic active dose; cited from earlier work
kallikrein = kallikrein (Homo sapiens, UniProt P03952); conditions: cited from earlier work
Chain of kallikrein (P03952 20-390 limits assumed): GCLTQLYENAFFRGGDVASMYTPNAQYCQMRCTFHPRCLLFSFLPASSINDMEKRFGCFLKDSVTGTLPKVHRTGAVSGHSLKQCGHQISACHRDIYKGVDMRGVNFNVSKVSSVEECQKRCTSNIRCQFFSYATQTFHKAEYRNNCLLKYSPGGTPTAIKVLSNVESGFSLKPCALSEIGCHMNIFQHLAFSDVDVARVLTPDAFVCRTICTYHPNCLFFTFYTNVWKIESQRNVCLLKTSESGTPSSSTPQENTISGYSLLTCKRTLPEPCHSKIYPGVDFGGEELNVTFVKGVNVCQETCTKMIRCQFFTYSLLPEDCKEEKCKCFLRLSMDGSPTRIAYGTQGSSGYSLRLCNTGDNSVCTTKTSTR
Chain of kallikrein (P03952 391-638 limits assumed): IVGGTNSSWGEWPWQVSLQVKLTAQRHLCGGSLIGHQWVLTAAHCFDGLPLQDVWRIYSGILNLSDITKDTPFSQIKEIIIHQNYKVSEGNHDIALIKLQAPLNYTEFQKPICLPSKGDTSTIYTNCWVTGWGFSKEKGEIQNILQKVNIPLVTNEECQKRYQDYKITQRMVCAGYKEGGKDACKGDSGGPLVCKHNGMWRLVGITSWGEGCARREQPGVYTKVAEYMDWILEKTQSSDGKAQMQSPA

[3] = tested on: neutrophils isolated from bone marrow of femurs of mice; experiment: Neutrophil activation following incubation with ATP (flow cytometry); assay type: cell-based, mice (C57BL/6)
Method: Neutrophils were isolated from the bone marrow of femurs of mice (C57BL/6) as previously described (Hu 2012), using FR-1-coupled magnetic beads (anti-Ly6G Microbead Kit, Miltenyi Biotec). For activation with TFNα, cells were harvested, centrifugated and incubated during 30 min with or without 2 ng/ml of TNFα in Hanks solution (Gibco). Next, neutrophils were incubated with Ir-CPI (0.65 or 2 μM) in Hanks solution (1 h at 37° C.). For activation with ATP, cells were harvested, centrifugated and incubated with ATP 10 μM and Ir-CPI (0.65 or 2 μM) in Hanks solution (1 h at 37° C.). After washing of cells, expression of CD11b, activated CD11b or Ly6G was assessed by flow cytometry (Beckman Coulter Gallios). Antibodies used for neutrophil identification and activation analyses were IRR IgG1-FITC (irrelevant antibody), anti-CD45-APC, anti-Ly6G-PE and anti-CD11b-FITC or Alexa Fluor 647 anti-activated CD11b-. Analysis of results was performed using the Kaluza software (Beckman Coulter).
Percentage of activation marker expression was presented as mean±SEM (n=3independent experiments for TNFα activation and n=2 independent experiments for ATP activation). For experiments with TNFα activation, a one-way ANOVA followed by a
Neutrophils isolated from bone marrow of femurs of mice were submitted to different in vitro experimental conditions (untreated control or incubation with Ir-CPI, and with or without ATP) to assess the effect of Ir-CPI on their activation status. The activation status was assessed by analyzing the percentage of CD11b, activated CD11b and Ly6G expressions at the surface of neutrophils (FIG. 17).

[4] = Distribution and elimination of Ir-CPI in the mice; assay type: in vivo
Method: Ir-CPI was administered intravenously as a bolus (20.5 mg/kg) immediately followed by a continuous infusion at a rate of 3.7 mg/kg/h (see Table 1 below). Due to fast distribution and elimination of Ir-CPI in the mice (t1/2α=14 min and t1/2β=236 min), the combination of the bolus and the infusion was chosen in order to maintain a constant Ir-CPI concentration into the blood.

FXIIa = target: T1, FXIIa (Homo sapiens, UniProt P00748); conditions: cited from earlier work
T1 construct: The resulting α-FXIIa has a heavy chain of 50 kDa, connected to a light chain of 28 kDa
T1 sequence (P00748 20-372 limits assumed): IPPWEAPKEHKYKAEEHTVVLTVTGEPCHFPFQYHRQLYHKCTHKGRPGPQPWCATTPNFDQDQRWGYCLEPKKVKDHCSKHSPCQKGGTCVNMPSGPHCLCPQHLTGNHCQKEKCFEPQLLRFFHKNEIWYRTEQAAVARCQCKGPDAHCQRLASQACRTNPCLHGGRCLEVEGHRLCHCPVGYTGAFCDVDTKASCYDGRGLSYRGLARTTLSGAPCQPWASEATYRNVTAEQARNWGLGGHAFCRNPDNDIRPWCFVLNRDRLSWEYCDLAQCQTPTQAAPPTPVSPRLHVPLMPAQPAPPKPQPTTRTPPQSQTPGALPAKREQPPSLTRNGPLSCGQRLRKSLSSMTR
T1 sequence (P00748 373-615 limits assumed): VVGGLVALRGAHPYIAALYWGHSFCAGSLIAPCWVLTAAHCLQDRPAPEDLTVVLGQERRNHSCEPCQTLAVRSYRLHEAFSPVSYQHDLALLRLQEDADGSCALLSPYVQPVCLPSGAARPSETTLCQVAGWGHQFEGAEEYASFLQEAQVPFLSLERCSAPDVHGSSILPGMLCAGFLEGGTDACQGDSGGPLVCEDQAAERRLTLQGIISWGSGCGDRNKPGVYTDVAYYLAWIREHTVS

[5] = High dose: 20.5 mg/kg bolus + 3.7 mg/kg/h
[6] = Low dose: 10.3 mg/kg bolus + 1.9 mg/kg/h

B1: Ir-CPI: Ixodes ricinus salivary gland polypeptide, contact phase inhibitor, MW=7660 Da; sequence SEQ ID NO: 1 or SEQ ID NO: 2 (protein)
chain: ANHKGRGRPAKCKLPPDDGPCRARIPSYYFDRKTKTCKEFMYGGCEGNENNFENITTCQEECRAKKV
fibrin generation compared to NaCl cancer mice [1, 5]: significant decrease
platelet accumulation compared to NaCl cancer mice [1, 5]: significant decrease
integrated fluorescence intensity of platelet labeling (area under curve) ([1]; High dose, vs NaCl cancer-free mice (*p<0.05) and NaCl cancer mice (***p<0.001)): significantly lower
fibrin generation compared to NaCl cancer mice [1, 6]: significant decrease
platelet accumulation compared to NaCl cancer mice [1, 6]: significant decrease
binding to prekallikrein (PK) (prekallikrein (PK)): unable to bind
bleeding [2]: does not increase bleeding
binding to kallikrein (kallikrein): binds
expression of Ly6G at the surface of neutrophils ([3]; ATP 10 μM, Ir-CPI 0.65 or 2 μM (FIG. 17A)): decreased
expression of activated CD11b at the surface of neutrophils ([3]; ATP 10 μM, Ir-CPI 0.65 or 2 μM (FIG. 17C)): significantly decreased
expression of CD11b ([3]; ATP experiment (FIG. 17B), Ir-CPI 0.65 and 2 μM): no effect
t1/2α [4]: 0.233 h
t1/2β [4]: 3.93 h
binding to FXIIa (FXIIa): binds
